Measurements from EP2670776B1.

Biological target: Knob F241R/F243S (knob Fc with F241R/F243S mutations) (human) [IgG part: P0DOX5]
Assay: size exclusion chromatography, against wild-type knob Fc

Reduction in homodimer content: 64.5%
Substance: Knob F241R/F243S (knob Fc with F241R/F243S mutations) (from UniProt P0DOX5 223-449)
